# System: Escherichia coli TOP10
# Assay: shrunken log2 fold change of peptide-encoding DNA abundance (4.5 h post-induction vs induction); higher = less antimicrobial activity (less host growth inhibition)
# Settings: time post-induction: 4.5 h; library: site-saturation at positions 5, 18, 19, 20
# 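Also: peptides expressed intracellularly from a pBAD plasmid library in pooled LB shake-flask culture, induced with 0.3% L-arabinose, DNA abundance read by NGS, three biological replicates, DESeq2 with apeglm shrinkage.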
row,Sequence,shrunken log2 fold change
1,RRIRIRPPRLPRPRPRPMKIPRP,-0.167
2,RRIRMRPPRLPRPRPRPGIGPRP,0.638
3,RRIRDRPPRLPRPRPRPLHYPRP,-0.0982
4,RRIRDRPPRLPRPRPRPDGNPRP,-0.00172
5,RRIRQRPPRLPRPRPRPCPAPRP,-0.00924
6,RRIRLRPPRLPRPRPRPECCPRP,0.338
7,RRIRKRPPRLPRPRPRPDWLPRP,0.308
8,RRIRWRPPRLPRPRPRPQFNPRP,-0.498
9,RRIRHRPPRLPRPRPRPFMQPRP,-0.348
10,RRIRFRPPRLPRPRPRPQWVPRP,-0.053
11,RRIRWRPPRLPRPRPRPKCEPRP,0.359
12,RRIRARPPRLPRPRPRPPWLPRP,0.495
13,RRIRMRPPRLPRPRPRPHPIPRP,-0.116
14,RRIRQRPPRLPRPRPRPPDRPRP,0.0477
15,RRIRLRPPRLPRPRPRPKATPRP,-0.116
16,RRIRLRPPRLPRPRPRPKIIPRP,-0.69
17,RRIRKRPPRLPRPRPRPNDTPRP,-0.11
18,RRIRDRPPRLPRPRPRPDLPPRP,0.337
19,RRIRVRPPRLPRPRPRPMQHPRP,0.0443
20,RRIRRRPPRLPRPRPRPCFDPRP,0.1
21,RRIRLRPPRLPRPRPRPKQGPRP,-0.0685
22,RRIRNRPPRLPRPRPRPNEKPRP,-0.00172
23,RRIRARPPRLPRPRPRPEDKPRP,1.89
24,RRIRYRPPRLPRPRPRPTHFPRP,0.262
25,RRIRYRPPRLPRPRPRPEMSPRP,-0.343

row,Sequence,shrunken log2 fold change
1,RRIRQRPPRLPRPRPRPIQNPRP,-0.11
2,RRIRKRPPRLPRPRPRPVWQPRP,0.184
3,RRIRRRPPRLPRPRPRPWQGPRP,-0.00783
4,RRIRDRPPRLPRPRPRPALKPRP,0.407
5,RRIRCRPPRLPRPRPRPFAPPRP,0.229
6,RRIRARPPRLPRPRPRPNITPRP,-0.0796
7,RRIRDRPPRLPRPRPRPENKPRP,0.0324
8,RRIRDRPPRLPRPRPRPEPYPRP,0.118
9,RRIRFRPPRLPRPRPRPVWFPRP,-0.182
10,RRIRERPPRLPRPRPRPCMWPRP,-0.233
11,RRIRWRPPRLPRPRPRPKKTPRP,0.0382
12,RRIRDRPPRLPRPRPRPMEAPRP,-0.0266
13,RRIRHRPPRLPRPRPRPNYAPRP,0.0414
14,RRIRHRPPRLPRPRPRPSSAPRP,-0.0336
15,RRIRCRPPRLPRPRPRPNLDPRP,-0.478
16,RRIRLRPPRLPRPRPRPSIKPRP,-0.684
17,RRIRWRPPRLPRPRPRPPYAPRP,0.426
18,RRIRHRPPRLPRPRPRPFKPPRP,-0.163
19,RRIRDRPPRLPRPRPRPILNPRP,-0.184
20,RRIRPRPPRLPRPRPRPFPAPRP,-0.161
21,RRIRPRPPRLPRPRPRPARDPRP,0.208
22,RRIRMRPPRLPRPRPRPRSIPRP,0.667
23,RRIRDRPPRLPRPRPRPMRRPRP,0.363
24,RRIRVRPPRLPRPRPRPCICPRP,-0.338
25,RRIRRRPPRLPRPRPRPLWFPRP,0.396

row,Sequence,shrunken log2 fold change
1,RRIRMRPPRLPRPRPRPVFIPRP,-0.137
2,RRIRYRPPRLPRPRPRPRQNPRP,0.345
3,RRIRYRPPRLPRPRPRPRGFPRP,-0.0875
4,RRIRERPPRLPRPRPRPKLCPRP,0.000831
5,RRIRMRPPRLPRPRPRPDNRPRP,0.00102
6,RRIRDRPPRLPRPRPRPFVYPRP,-0.344
7,RRIRNRPPRLPRPRPRPCSCPRP,-0.0018
8,RRIRFRPPRLPRPRPRPKHMPRP,-0.52
9,RRIRFRPPRLPRPRPRPTVDPRP,-0.175
10,RRIRPRPPRLPRPRPRPAKSPRP,0.179
11,RRIRIRPPRLPRPRPRPDIFPRP,-0.828
12,RRIRIRPPRLPRPRPRPAVHPRP,-0.145
13,RRIRVRPPRLPRPRPRPQKEPRP,-0.178
14,RRIRFRPPRLPRPRPRPIWAPRP,0.0219
15,RRIRARPPRLPRPRPRPHQIPRP,0.354
16,RRIRQRPPRLPRPRPRPNDMPRP,-0.296
17,RRIRKRPPRLPRPRPRPVQYPRP,0.071
18,RRIRHRPPRLPRPRPRPPCCPRP,-0.0551
19,RRIRRRPPRLPRPRPRPSFMPRP,-0.106
20,RRIRIRPPRLPRPRPRPGWSPRP,0.312
21,RRIRQRPPRLPRPRPRPSRKPRP,0.111
22,RRIRGRPPRLPRPRPRPIYEPRP,-0.0413
23,RRIRKRPPRLPRPRPRPDGVPRP,0.154
24,RRIRVRPPRLPRPRPRPYPHPRP,-0.342
25,RRIRRRPPRLPRPRPRPLMVPRP,-0.161

row,Sequence,shrunken log2 fold change
1,RRIRPRPPRLPRPRPRPQGKPRP,-0.198
2,RRIRVRPPRLPRPRPRPGTMPRP,-0.122
3,RRIRPRPPRLPRPRPRPELSPRP,0.46
4,RRIRDRPPRLPRPRPRPFPIPRP,0.0144
5,RRIRCRPPRLPRPRPRPGPSPRP,0.17
6,RRIRPRPPRLPRPRPRPRSCPRP,0.395
7,RRIRERPPRLPRPRPRPYCLPRP,-0.123
8,RRIRPRPPRLPRPRPRPQRPPRP,0.272
9,RRIRMRPPRLPRPRPRPHWSPRP,0.0857
10,RRIRYRPPRLPRPRPRPWWHPRP,-0.757
11,RRIRGRPPRLPRPRPRPRQDPRP,0.452
12,RRIRRRPPRLPRPRPRPHSNPRP,-0.281
13,RRIRGRPPRLPRPRPRPKHFPRP,-0.121
14,RRIRPRPPRLPRPRPRPISCPRP,-0.0606
15,RRIRGRPPRLPRPRPRPRTKPRP,0.942
16,RRIRMRPPRLPRPRPRPISQPRP,-0.29
17,RRIRMRPPRLPRPRPRPCDMPRP,0.195
18,RRIRSRPPRLPRPRPRPDRIPRP,-0.249
19,RRIRPRPPRLPRPRPRPHHLPRP,-0.0444
20,RRIRCRPPRLPRPRPRPYMEPRP,-0.428
21,RRIRVRPPRLPRPRPRPNFIPRP,-0.168
22,RRIRARPPRLPRPRPRPKFYPRP,-0.214
23,RRIRYRPPRLPRPRPRPPIMPRP,-1.14
24,RRIRNRPPRLPRPRPRPNHSPRP,-0.525
25,RRIRARPPRLPRPRPRPWGVPRP,0.329

row,Sequence,shrunken log2 fold change
1,RRIRERPPRLPRPRPRPTMEPRP,-0.116
2,RRIRARPPRLPRPRPRPMAAPRP,3.13
3,RRIRIRPPRLPRPRPRPIFDPRP,-0.237
4,RRIRWRPPRLPRPRPRPPFGPRP,0.274
5,RRIRDRPPRLPRPRPRPMFAPRP,0.199
6,RRIRMRPPRLPRPRPRPRTMPRP,0.926
7,RRIRDRPPRLPRPRPRPEFLPRP,0.0745
8,RRIRERPPRLPRPRPRPKVVPRP,-0.0857
9,RRIRFRPPRLPRPRPRPKFLPRP,-0.283
10,RRIRYRPPRLPRPRPRPVYTPRP,-0.499
11,RRIRQRPPRLPRPRPRPTPWPRP,0.619
12,RRIRLRPPRLPRPRPRPIWQPRP,0.0488
13,RRIRWRPPRLPRPRPRPRFCPRP,0.234
14,RRIRDRPPRLPRPRPRPAFKPRP,0.0611
15,RRIRYRPPRLPRPRPRPNMVPRP,-0.0169
16,RRIRVRPPRLPRPRPRPWAWPRP,-0.00558
17,RRIRVRPPRLPRPRPRPLASPRP,-0.214
18,RRIRFRPPRLPRPRPRPNHMPRP,-0.567
19,RRIRKRPPRLPRPRPRPQYGPRP,-0.0781
20,RRIRRRPPRLPRPRPRPAQYPRP,0.34
21,RRIRARPPRLPRPRPRPRFPPRP,0.421
22,RRIRFRPPRLPRPRPRPYDCPRP,0.0187
23,RRIRLRPPRLPRPRPRPGFDPRP,0.137
24,RRIRYRPPRLPRPRPRPIIKPRP,-1.25
25,RRIRQRPPRLPRPRPRPTEGPRP,-0.0332

row,Sequence,shrunken log2 fold change
1,RRIRIRPPRLPRPRPRPKQMPRP,-0.166
2,RRIRGRPPRLPRPRPRPQFNPRP,-0.163
3,RRIRTRPPRLPRPRPRPAYEPRP,0.164
4,RRIRHRPPRLPRPRPRPNFHPRP,-0.407
5,RRIRRRPPRLPRPRPRPGWFPRP,0.283
6,RRIRWRPPRLPRPRPRPWAVPRP,0.0624
7,RRIRIRPPRLPRPRPRPERFPRP,-0.0158
8,RRIRSRPPRLPRPRPRPTVYPRP,0.0113
9,RRIRQRPPRLPRPRPRPRTTPRP,0.218
10,RRIRERPPRLPRPRPRPAPGPRP,0.325
11,RRIRRRPPRLPRPRPRPCPWPRP,-0.0433
12,RRIRRRPPRLPRPRPRPACWPRP,0.626
13,RRIRARPPRLPRPRPRPYRHPRP,-0.157
14,RRIRERPPRLPRPRPRPLQDPRP,-0.133
15,RRIRERPPRLPRPRPRPVLTPRP,-0.126
16,RRIRSRPPRLPRPRPRPQKSPRP,-0.181
17,RRIRQRPPRLPRPRPRPSLHPRP,-0.64
18,RRIRHRPPRLPRPRPRPHRFPRP,-0.162
19,RRIRHRPPRLPRPRPRPDNTPRP,-0.0928
20,RRIRDRPPRLPRPRPRPLVTPRP,0.486
21,RRIRIRPPRLPRPRPRPDMNPRP,-0.146
22,RRIRMRPPRLPRPRPRPQTCPRP,0.0193
23,RRIRCRPPRLPRPRPRPLQQPRP,0.178
24,RRIRTRPPRLPRPRPRPLDSPRP,-0.0239
25,RRIRYRPPRLPRPRPRPGKVPRP,-0.204
